The values that follow are results of earlier work, collected in patent publication US10487153B2, “Carbonic anhydrase IX-specific antibodies and uses thereof” (National Research Council of Canada, priority 2015, dated 2019).

In the data set the target is T1, CA-IX (Homo sapiens, UniProt Q16790).
T1 construct: host or cells: patients' own tumour tissue (endogenous)
Conditions: >6-year span; compared to a placebo; cited from earlier work.

Consider “cG250: chimeric version of anti-CA-IX mAb G250, developed as a therapeutic antibody”, for which the “disease-free survival rate of patients” value is “not improve the disease-free survival rate”.
